The results in this text go back to publication PMC9213791, “Small Molecule RPI-194 Stabilizes Activated Troponin to Increase the Calcium Sensitivity of Striated Muscle Contraction” (Frontiers in Physiology, 2022).

Test [1] concerns the target T1, recombinant human aCys-cNTnC (C35S, C84S double mutant), N-terminal regulatory domain of cardiac troponin C (human).
T1 construct: human cardiac/slow skeletal troponin C, N-terminal regulatory domain (cNTnC); Uniformly 15N-labeled for NMR; also called cNTnC domain; isolated cNTnC domain; source: E. coli, expressed and purified as previously described (Cai et al., 2016), lyophilized; 15N-labeled
In words: NMR titration; ssTnI peptide titrated to 0.1-3 equivalents into 15N-labeled cNTnC·RPI-194 complex (115 µM, 1:1 protein and drug); 100 mM KCl, 10 mM imidazole, pH ~6.7, 30°C; 2D 1H,15N HSQC; KD from TITAN, two-state model. Conditions: both partners purified.

Test [2] has as its target T1, recombinant human aCys-cNTnC (C35S, …). In words: NMR titration; ssTnI peptide (10 mM stock in d6-DMSO) titrated to 0.5-30 equivalents into 15N-labeled cNTnC (115 µM); 100 mM KCl, 10 mM imidazole, pH ~6.7, 30°C; 2D 1H,15N HSQC; KD from 2D lineshape analysis (TITAN), two-state model; no RPI-194. The conditions noted are these: both partners purified.

B1: slow skeletal troponin I switch peptide (ssTnI) (peptide)
chain: RVSADAMLRALLGSKHK
modifications: synthetic peptide; termini not stated. Limits not printed: taken as the ssTnI equivalent (offset -30) of the conventional cTnI switch peptide 147-163, because the paper compares it with the …
The Kd is the concentration at which binding is half-saturated. In the case of B1, the Kd came out at 22 µM in test [1] and 652 µM in test [2].
